Experimental data published in patent publication US20110236427A1 (MEDIZINISCHE UNIVERSITAT INNSBRUCK, published 2011).

Columns and labels:
[1] = target: T1, endogenous PKCalpha from Jurkat T cell lysates (human, UniProt P17252 2-672); test: GST pull down from Jurkat T cell lysates, immunoblot
T1 construct: Detected by immunoblot with an anti-PKCalpha antibody (UBI) after the GST pull down; also called PKCα
Procedure: (§1) GST pull down assay: 1×10⁷ Jurkat T cells were lysed in 1 ml lysis buffer (25 mM MES pH6.5, 5 mM NaF, 1 mM Na₃VO₄, 2 mM EDTA, 150 mM NaCl, 0.5% TritonX-100, 50 μg/ml aprotinin and leupeptin). Lysates were precleared for 30 min at 4° C. Thereafter incubation with purified recombinant GST-NR2F6 fusion proteins for 3 h at 4° C., 5× washing in lysis buffer, SDS-PAGE under reducing conditions on Bis/Tris-buffered gels (Novex, San Diego, Calif.) was performed. Proteins were transferred onto a polyvinyl-difluoridon (PVDF) membrane (Millipore, Bedford, Mass.) by semi-dry blotting (90 mA, 80 min, 4° C.). […] Peroxidase-conjugated antibodies (Pierce, Rockford, Ill.) served as secondary reagent (1:5,000). For antigen detection enhanced chemiluminescence was used (Super Signal, Pierce, Rockford, Ill.).

[2] = target: T2, endogenous PKCtheta from Jurkat T cell lysates (human, UniProt Q04759 1-706); test: as above
T2 construct: Detected by immunoblot with an anti-PKCtheta antibody (Cell Signalling) after the GST pull down
Procedure: as §1

T2 sequence (Q04759 whole entry): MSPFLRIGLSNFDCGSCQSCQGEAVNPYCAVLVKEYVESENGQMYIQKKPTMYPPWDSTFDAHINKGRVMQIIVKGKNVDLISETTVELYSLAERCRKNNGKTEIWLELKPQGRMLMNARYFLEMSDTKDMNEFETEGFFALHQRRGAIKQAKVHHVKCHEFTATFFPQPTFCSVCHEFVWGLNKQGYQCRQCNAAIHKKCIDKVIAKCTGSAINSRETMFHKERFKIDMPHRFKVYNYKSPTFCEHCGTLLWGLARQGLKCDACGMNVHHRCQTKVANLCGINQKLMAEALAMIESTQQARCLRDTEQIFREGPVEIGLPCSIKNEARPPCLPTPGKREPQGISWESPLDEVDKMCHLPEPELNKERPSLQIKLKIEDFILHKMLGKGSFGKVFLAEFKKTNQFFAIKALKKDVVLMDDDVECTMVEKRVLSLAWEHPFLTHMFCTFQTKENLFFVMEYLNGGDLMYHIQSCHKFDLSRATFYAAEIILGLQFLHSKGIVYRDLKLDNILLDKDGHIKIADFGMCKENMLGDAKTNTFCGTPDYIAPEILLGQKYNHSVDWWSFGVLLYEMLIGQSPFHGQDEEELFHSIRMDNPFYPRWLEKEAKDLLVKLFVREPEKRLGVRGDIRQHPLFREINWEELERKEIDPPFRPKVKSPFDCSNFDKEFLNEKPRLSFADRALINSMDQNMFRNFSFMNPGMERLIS

B1: GST-NR2F6 fusion protein, full-length, wild-type (other)
chain: MAMVTGGWGGPGGDTNGVDKAGGYPRAAEDDSASPPGAASDAEPGDEERPGLQVDCVVCGDKSSGKHYGVFTCEGCKSFFKRSIRRNLSYTCRSNRDCQIDQHHRNQCQYCRLKKCFRVGMRKEAVQRGRIPHSLPGAVAASSGSPPGSALAAVASGGDLFPGQPVSELIAQLLRAEPYPAAAGRFGAGGGAAGAVLGIDNVCELAARLLFSTVEWARHAPFFPELPVADQVALLRLSWSELFVLNAAQAALPLHTAPLLAAAGLHAAPMAAERAVAFMDQVRAFQEQVDKLGRLQVDSAEYGCLKAIALFTPDACGLSDPAHVESLQEKAQVALTEYVRAQYPSQPQRFGRLLLRLPALRAVPASLISQLFFMRLVGKTPIETLIRDMLLSGSTFNWPYGSGQ
notes: Purified recombinant fusion protein, used as bait in the GST pull down from Jurkat T cell lysates and as substrate in the in vitro kinase assay; also called recombinant NR2F6; purified recombinant GST-NR2F6; not shown: GST tag; N-terminal position inferred from the name GST-NR2F6
Which results are given for B1?
binding result [1]: binds; binding result [2]: binds
